In this series the test system is Bacillus subtilis. Kind of series: cleaved RNA product abundance (RNA/gDNA barcode ratio) relative to median wild-type variant (ratio to wild type); higher = more accumulation of the downstream cleavage product. To be noted: experiment (reporter, strain, medium): exp 8a: truncated aprE reporter, strain BJT201 with 2% xylose (RNase J1 expressed); cleavage site: glnRA (positions -5 to +31 mutated). The gist of the method:
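Truncated aprE or tetM reporter mRNAs with barcoded RNase Y cleavage-site windows, mutagenized from oligos at a 9% error rate, sat in the B. subtilis chromosome. Cells grew in LB at 37°C from OD600 0.0003 to 0.3. Gel-selected cleaved RNA was reverse transcribed and its barcodes sequenced with those from genomic DNA, collapsing by UMI. Cleaved product abundance equals the RNA:gDNA barcode ratio per construct over the median construct with the unmutated site.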
Take “CGACATGTCCCGCTTCTTTCATTAATCCGTTATCAACTGTTTTGCTATATACATTTGCCTTTTAAGAGGAGGAAT”: the “cleaved RNA product abundance” value is 0.223.
Next, “CGACATGTCCCGCTTCTTTCATTAATCCGTTATCAACTGTTTTGCTATATACATTTTCCTTTTAAGAGGAGGAAT”: 0.122.
Take “CGACATGTCCCGCTTCTTTCATTAATCCGTTATCAACTGTTTTGCTATATACTTTTACCTTTTAAGAGGAGGAAT”: the “cleaved RNA product abundance” value amounted to 0.295.
The value for “CGACATGTCCCGCTTCTTTCATTAATCCGTTATCAACTGTTTTGCTATATAGATTTACCTTTTAAGAGGAGGAAT” was 0.418; that for “CGACATGTCCCGCTTCTTTCATTAATCCGTTATCAACTGTTTTGCTATATATATTTACCTTTTAAGAGGAGGAAT” was 0.288; that for “CGACATGTCCCGCTTCTTTCATTAATCCGTTATCAACTGTTTTGCTATATCCATTTACCTTTTAAGAGGAGGAAT” was 0.136.
The value for “CGACATGTCCCGCTTCTTTCATTAATCCGTTATCAACTGTTTTGCTATATGCATTTACCTTTTAAGAGGAGGAAT” was 0.135.
The value for “CGACATGTCCCGCTTCTTTCATTAATCCGTTATCAACTGTTTTGCTATATTCATTTACCTTTTAAGAGGAGGAAT” was 0.246; that for “CGACATGTCCCGCTTCTTTCATTAATCCGTTATCAACTGTTTTGCTATTTACATTTACCTTTTAAGAGGAGGAAT” was 0.111.
As for “CGACATGTCCCGCTTCTTTCATTAATCCGTTATCAACTGTTTTGCTGTATACATTTACCTTTTAAGAGGAGGAAT”, the “cleaved RNA product abundance” value was 0.192.
For “CGACATGTCCCGCTTCTTTCATTAATCCGTTATCAACTGTTTTGCTTTATACATTTACCTTTTAAGAGGAGGAAT”, the “cleaved RNA product abundance” value was 0.202.
Take “CGACATGTCCCGCTTCTTTCATTAATCCGTTATCAACTGTTTTGTTATATACATTTACCTTTTAAGAGGAGGAAT”: the “cleaved RNA product abundance” value amounted to 0.272.
For “CGACATGTCCCGCTTCTTTCATTAATCCGTTATCAACTGTTTTTCTATATACATTTACCTTTTAAGAGGAGGAAT”, the “cleaved RNA product abundance” value amounted to 0.393.
The value for “CGACATGTCCCGCTTCTTTCATTAATCCGTTATCAACTTTTTTGCTATATACATTTACCTTTTAAGAGGAGGAAT” was 0.387; that for “CGACATGTCCCGCTTCTTTCATTAATCCGTTATCAAGTGTTTTGCTATATACATTTACCTTTTAAGAGGAGGAAT” was 0.202; that for “CGACATGTCCCGCTTCTTTCATTAATCCGTTATCAATTGTTTTGCTATATACATTTACCTTTTAAGAGGAGGAAT” was 0.199.
For “CGACATGTCCCGCTTCTTTCATTAATCCGTTATCACCTGTTTTGCTATATACATTTACCTTTTAAGAGGAGGAAT”, the “cleaved RNA product abundance” value is 0.198.
Next, “CGACATGTCCCGCTTCTTTCATTAATCCGTTATCATCTGTTTTGCTATATACATTTACCTTTTAAGAGGAGGAAT”: 0.267; “CGACATGTCCCGCTTCTTTCATTAATCCGTTATCGACTGTTTTGCTATATACATTTACCTTTTAAGAGGAGGAAT”: 0.257; “CGACATGTCCCGCTTCTTTCATTAATCCGTTATGAACTGTTTTGCTATATACATTTACCTTTTAAGAGGAGGAAT”: 0.252.
Next, “CGACATGTCCCGCTTCTTTCATTAATCCGTTATTAACTGTTTTACTATATACATTTACCTTTTAAGAGGAGGAAT”: 0.408; “CGACATGTCCCGCTTCTTTCATTAATCCGTTATTAACTGTTTTGCTATATACATTTACCTTTTAAGAGGAGGAAT”: 0.337.
As to “CGACATGTCCCGCTTCTTTCATTAATCCGTTCACAACTGTTTTGCTATATACATTTACCTTTTAAGAGGAGGAAT”, the “cleaved RNA product abundance” value was found to be 0.224.
Turning to “CGACATGTCCCGCTTCTTTCATTAATCCGTTCCCAACTGTTTTGCTATATACATTTACCTTTTAAGAGGAGGAAT”, the “cleaved RNA product abundance” value was 0.392.
The value for “CGACATGTCCCGCTTCTTTCATTAATCCGTTCGAAACTGTTTTGCTATATACATTTACCTTTTAAGAGGAGGAAT” was 0.347; that for “CGACATGTCCCGCTTCTTTCATTAATCCGTTCGCAACAGTTTTGCTATATACATTTACCTTTTAAGAGGAGGAAT” was 0.419.
Next, “CGACATGTCCCGCTTCTTTCATTAATCCGTTCGCAACTGTTATGCTATATACATTTACCTTTTAAGAGGAGGAAT”: 0.349.
As to “CGACATGTCCCGCTTCTTTCATTAATCCGTTCGCAACTGTTTTACTATATACATTTACCTTTTAAGAGGAGGAAT”, the “cleaved RNA product abundance” value is 0.418.
As to “CGACATGTCCCGCTTCTTTCATTAATCCGTTCGCAACTGTTTTGATATATACATTTACCTTTTAAGAGGAGGAAT”, the “cleaved RNA product abundance” value was found to be 0.334.
With “CGACATGTCCCGCTTCTTTCATTAATCCGTTCGCAACTGTTTTGCTATAAACATTTACCTTTTAAGAGGAGGAAT”, the “cleaved RNA product abundance” value was determined as 0.122.
Next, “CGACATGTCCCGCTTCTTTCATTAATCCGTTCGCAACTGTTTTGCTATATACATTTACCTTTTAAGAGGAGGAAT”: 0.345; “CGACATGTCCCGCTTCTTTCATTAATCCGTTCGCAACTGTTTTGCTATATACATTTACGTTTTAAGAGGAGGAAT”: 0.342.
The value for “CGACATGTCCCGCTTCTTTCATTAATCCGTTCGCAACTGTTTTGCTATATATATTTACCTTTTAAGAGGAGGAAT” was 0.324.
The value for “CGACATGTCCCGCTTCTTTCATTAATCCGTTCGCAACTGTTTTGTTATATACATTTACCTTTTAAGAGGAGGAAT” was 0.411; that for “CGACATGTCCCGCTTCTTTCATTAATCCGTTCGCAACTTTTTTGCTATATACATTTACCTTTTAAGAGGAGGAAT” was 0.381.
On to “CGACATGTCCCGCTTCTTTCATTAATCCGTTCGCAATTGTTTTGCTATATACATTTACCTTTTAAGAGGAGGAAT”, for which the “cleaved RNA product abundance” value came out at 0.31.
In the case of “CGACATGTCCCGCTTCTTTCATTAATCCGTTGCCAACTGTTTTGCTATATACATTTACCTTTTAAGAGGAGGAAT”, the “cleaved RNA product abundance” value stood at 0.264.
On to “CGACATGTCCCGCTTCTTTCATTAATCCGTTGGCAACTATTTTGCTATATACATTTACCTTTTAAGAGGAGGAAT”, for which the “cleaved RNA product abundance” value was 0.866.
Consider “CGACATGTCCCGCTTCTTTCATTAATCCGTTGGCAACTGATTTGCTATATACATTTACCTTTTAAGAGGAGGAAT”, for which the “cleaved RNA product abundance” value worked out at 0.729.
For “CGACATGTCCCGCTTCTTTCATTAATCCGTTGGCAACTGTTTAGCTATATACATTTACCTTTTAAGAGGAGGAAT”, the “cleaved RNA product abundance” value is 0.38.
For “CGACATGTCCCGCTTCTTTCATTAATCCGTTGGCAACTGTTTTGCTATAAACATTTACCTTTTAAGAGGAGGAAT”, the “cleaved RNA product abundance” value was 0.509.
Next, “CGACATGTCCCGCTTCTTTCATTAATCCGTTGGCAACTGTTTTGCTATATACATTTACCTTTTAAGAGGAGGAAT”: 0.739; “CGACATGTCCCGCTTCTTTCATTAATCCGTTGGCAACTGTTTTGCTATATACATTTACTTTTTAAGAGGAGGAAT”: 0.61; “CGACATGTCCCGCTTCTTTCATTAATCCGTTGGCAACTGTTTTGCTATGTACATTTACCTTTTAAGAGGAGGAAT”: 0.1.
Next, “CGACATGTCCCGCTTCTTTCATTAATCCGTTGGCAATTGTTTTGCTATATACATTTACCTTTTAAGAGGAGGAAT”: 1.12.
On to “CGACATGTCCCGCTTCTTTCATTAATCCGTTTACAACTGTTTTGCTATATACATTTACCTTTTAAGAGGAGGAAT”, for which the “cleaved RNA product abundance” value is 0.276.
Consider “CGACATGTCCCGCTTCTTTCATTAATCCGTTTGAAACTGTTTTGCTATATACATTTACCTTTTAAGAGGAGGAAT”, for which the “cleaved RNA product abundance” value was 0.388.
The value for “CGACATGTCCCGCTTCTTTCATTAATCCGTTTGCAAATGTTTTGCTATATACATTTACCTTTTAAGAGGAGGAAT” was 0.446; that for “CGACATGTCCCGCTTCTTTCATTAATCCGTTTGCAACTATTTTGCTATATACATTTACCTTTTAAGAGGAGGAAT” was 0.859; that for “CGACATGTCCCGCTTCTTTCATTAATCCGTTTGCAACTCTTTTGCTATATACATTTACCTTTTAAGAGGAGGAAT” was 0.483.
The value for “CGACATGTCCCGCTTCTTTCATTAATCCGTTTGCAACTGATTTGCTATATACATTTACCTTTTAAGAGGAGGAAT” was 0.51; that for “CGACATGTCCCGCTTCTTTCATTAATCCGTTTGCAACTGTTATGCTATATACATTTACCTTTTAAGAGGAGGAAT” was 0.428.
Turning to “CGACATGTCCCGCTTCTTTCATTAATCCGTTTGCAACTGTTTAGCTATATACATTTACCTTTTAAGAGGAGGAAT”, the “cleaved RNA product abundance” value worked out at 0.517.
The value for “CGACATGTCCCGCTTCTTTCATTAATCCGTTTGCAACTGTTTTACTATATACATTTACCTTTTAAGAGGAGGAAT” was 0.879.
As for “CGACATGTCCCGCTTCTTTCATTAATCCGTTTGCAACTGTTTTGATATATACATTTACCTTTTAAGAGGAGGAAT”, the “cleaved RNA product abundance” value was 0.421.
As for “CGACATGTCCCGCTTCTTTCATTAATCCGTTTGCAACTGTTTTGCTAAATACATTTACCTTTTAAGAGGAGGAAT”, the “cleaved RNA product abundance” value is 0.289.
As for “CGACATGTCCCGCTTCTTTCATTAATCCGTTTGCAACTGTTTTGCTACATACATTTACCTTTTAAGAGGAGGAAT”, the “cleaved RNA product abundance” value is 0.623.
The value for “CGACATGTCCCGCTTCTTTCATTAATCCGTTTGCAACTGTTTTGCTATACACATTTACCTTTTAAGAGGAGGAAT” was 0.386; that for “CGACATGTCCCGCTTCTTTCATTAATCCGTTTGCAACTGTTTTGCTATATACAATTACCTTTTAAGAGGAGGAAT” was 0.478.
Next, “CGACATGTCCCGCTTCTTTCATTAATCCGTTTGCAACTGTTTTGCTATATACATATACCTTTTAAGAGGAGGAAT”: 0.478.
Next, “CGACATGTCCCGCTTCTTTCATTAATCCGTTTGCAACTGTTTTGCTATATACATTGACCTTTTAAGAGGAGGAAT”: 0.837.

For the origin of these results see the supplement of paper PMC11780869.
